These results are taken from article doi:10.1101/2023.03.10.531533 (bioRxiv, 2023).

The target in test [1] is recombinant SARS-CoV-1 spike protein (SARS-CoV-1, isolate , UniProt P59594, stabilised). Put plainly: ELISA. On the technique in general: An ELISA detects its analyte on a solid surface through an enzyme-linked reagent.
The target of test [2] is mouse Fc-tagged SARS-CoV-2 RBD (SARS-CoV-2, Wuhan-Hu-1 (assumed from …, UniProt P0DTC2)). As to the kind of experiment: ELISA.
For test [3], the target named is HR2 protein, residues H1159-K1211 of the SARS-CoV-2 spike (SARS-CoV-2, UniProt P0DTC2). Put plainly: crystal structure.

B1: VHH R3DC23 (VHH)
VHH: QVQLQESGGGLVQAGDSLTLSCAVSGRIFSTYTMGWFRQAPGKEREFVAAVRWGAGTIYYADSMKGRFTISRDSAKNTVDLQMNSTKPEDTAVYYCGAAYVSKANYGSLWYQDSRRYDYWGQGTQVTVSS
For the molecule B1, the binding result was “binds” in test [1], “no binding” in test [2] and “binds” in test [3].
